# Experimental data: the supplement of paper PMC10724198
# ± gives the standard deviation of the averaged measurements.
# Test system: Saccharomyces cerevisiae
# Assay: protein stability index of tFT-peptide fusion (C-terminal peptide) (PSI (0-1 scale)); higher = more stable (slower turnover)
# Details: genetic background: wild type; temperature: 30 C
# Method: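 Multiplexed protein stability (MPS) profiling in S. cerevisiae. Random 12-aa peptides (tFT-X12 library) are fused to the C-terminus of a sfGFP-mCherry tandem fluorescent timer, after mCherry and a GGGS linker. Cells are FACS-sorted into 8 mCherry/sfGFP bins and deep-sequenced. The protein stability index (PSI) is the read-weighted bin average, scaled from 0 (unstable) to 1 (stable). Only peptides with >10 reads are reported; cells were grown at 30 °C in SC-His with glucose.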
# 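Note: PSI is a weighted mean of sequencing reads over stability bins, variants kept only with over 10 reads, mCherry proximal and sfGFP distal, peptide attached via GGGS linker.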
row,Sequence,protein stability index
1,TQHKANQGLELI,0.663 ± 0.008
2,KKNLITRQNPLS,0.69004 ± 0.0003
3,KDGMATKCIAYT,0.657 ± 0.011
4,PPSPARFPPPSS,0.632 ± 0.015
5,SNKDLELVSTVC,0.658 ± 0.002
6,LFGQTVLLSAGT,0.713 ± 0.018
7,PLPPPPPPPHSP,0.738 ± 0.05
8,EDACARFVRLFL,0.678 ± 0.051
9,KHQNEKKQTNKA,0.623 ± 0.034
10,VKRVYQRFHVKK,0.666 ± 0.04
11,LRGEGPGRKGGA,0.67 ± 0.05
12,VGNNERDLQQIE,0.665 ± 0.032
13,GGHGRREEKGQR,0.6845 ± 0.0058
14,PPPPAPPPLLLP,0.717 ± 0.044
15,EKNEREEAESGG,0.714 ± 0.038
16,SPPLPPLGFNPP,0.6414 ± 0.0025
17,FSAFFLFMFCFL,0.488 ± 0.025
18,AGPAIEGARAPR,0.7684 ± 0.0022
19,VAAGGTVSPSSQ,0.653 ± 0.057
20,PRPSPPPVSPRP,0.74 ± 0.043
21,PPLFPYRPPQPT,0.697 ± 0.099
22,VGEIMREVKGPD,0.72 ± 0.0079
23,KCGLQRFREAIY,0.61 ± 0.0084
24,EKLEGRKIIKKK,0.6927 ± 0.006
25,NGLGKGKTKGEI,0.625 ± 0.1

row,Sequence,protein stability index
1,LPLQPSSNLTCL,0.70856 ± 0.00024
2,PSPFSPPPPSSP,0.736 ± 0.028
3,SGAGVNWGVGGG,0.728 ± 0.019
4,PPLHPPPPAFVF,0.64175 ± 0.00037
5,PPPPPPPPAPLP,0.708 ± 0.089
6,DSETLLSKEWKQ,0.651 ± 0.11
7,TPPSPHPCPSPL,0.797 ± 0.064
8,FRLPTCLLLFPF,0.594 ± 0.098
9,KKNYNTKLTQHP,0.683 ± 0.04
10,CLMGTIETRLRC,0.637 ± 0.049
11,ERVEETGREQPT,0.754 ± 0.037
12,LLLSALLLSASP,0.625 ± 0.0083
13,LSVQFVSQHTRV,0.664 ± 0.024
14,YQGERGAIGVIF,0.605 ± 0.013
15,KILRKVIKQKGN,0.599 ± 0.041
16,VCMSLVRGEAGG,0.657 ± 0.011
17,GWFFFGCFECGG,0.731 ± 0.024
18,LKIDTCSQQEEN,0.675 ± 0.11
19,VPCPPRRLAPRG,0.582 ± 0.015
20,LLPHALHVPFHL,0.707 ± 0.1
21,FFCTHFQLLFSP,0.641 ± 0.019
22,VGVKLVVEAIRR,0.6322 ± 0.0039
23,SGVAAPVRPRSV,0.854 ± 0.11
24,LPPPLPPCPSGP,0.77 ± 0.048
25,VAGRGLGCPGRI,0.632 ± 0.018

row,Sequence,protein stability index
1,VEHILQGVKYRR,0.717 ± 0.098
2,KKKENRQKREIQ,0.647 ± 0.029
3,GLIVGLLGVSGF,0.591 ± 0.0062
4,REMKGKLHEHRK,0.6792 ± 0.0029
5,CVFSCLLATVFL,0.533 ± 0.026
6,CLRGTYPRLPLT,0.6838 ± 0.0035
7,WFLRSFGIQRSG,0.511 ± 0.0047
8,SSRLVFFLPSLR,0.6966 ± 0.0022
9,DPLLYLCLGSQC,0.676 ± 0.017
10,EWVPDIANLRRR,0.752 ± 0.16
11,PRLFLSICPFSF,0.682 ± 0.051
12,PVLLVWDLPAVL,0.714 ± 0.086
13,SSPRANAYASCP,0.726 ± 0.16
14,SSVRPHPAPPHT,0.701 ± 0.01
15,WGRGGSRGSWGA,0.716 ± 0.014
16,GRRGGGTGAPSR,0.65 ± 0.05
17,LAHAGSRPPTPG,0.6754 ± 0.0016
18,LVRGRFVVFSGM,0.626 ± 0.034
19,GLLENLKKRSRG,0.691 ± 0.07
20,NVALPLSLLFGL,0.633 ± 0.087
21,VSVGVPGWYGMI,0.6336 ± 0.0049
22,KRGYLRTNPLSY,0.7056 ± 0.0061
23,CIKQTNNQNKSN,0.697 ± 0.045
24,GWLCARGSSSRP,0.649 ± 0.0067
25,AVCWWGSVGGVG,0.6966 ± 0.0069

row,Sequence,protein stability index
1,SPTPPPPPPRPP,0.581 ± 0.018
2,PPVISAPIPLAP,0.688 ± 0.052
3,PSPAPHIPIFFR,0.742 ± 0.079
4,PPPPPPPRPDPP,0.557 ± 0.04
5,VWGGGSWGGCGG,0.744 ± 0.082
6,VGWRGTGCGRVW,0.688 ± 0.074
7,VGGGRRGGVGEG,0.652 ± 0.021
8,GQRRDSSSEVWG,0.67 ± 0.017
9,PRSVLGFKMGRF,0.715 ± 0.065
10,GPPLSPPLLLLL,0.681 ± 0.046
11,MAFKLFPFGRNL,0.73 ± 0.028
12,FQEDSPVSQRYP,0.645 ± 0.041
13,KGGCGAGRDGRG,0.731 ± 0.026
14,AQRGSTAASAGG,0.683 ± 0.07
15,YLVRENLFSRLV,0.466 ± 0.07
16,RRRGEREKRPRA,0.653 ± 0.021
17,CVLAPPHRRAPS,0.699 ± 0.031
18,EENLLYLLYVEC,0.544 ± 0.016
19,GYWPWGLARVDV,0.698 ± 0.017
20,SLFYSPSSVFSF,0.866 ± 0.13
21,KTYKNKTQQNAS,0.746 ± 0.045
22,WGWGGGWSGACL,0.679 ± 0.0071
23,RRAPRQKLIPAK,0.6768 ± 0.0055
24,PRPSFRPPPPLP,0.722 ± 0.011
25,KENKKKKQRKLK,0.774 ± 0.067

row,Sequence,protein stability index
1,SPPAPLPPPLPR,0.648 ± 0.025
2,GKGREGVGEVGK,0.6753 ± 0.0043
3,PLRPSVSALPPF,0.683 ± 0.018
4,WGARSRFRWGRS,0.7284 ± 0.0052
5,SVQWPITIEVWK,0.631 ± 0.014
6,QSNEHVRQSETS,0.682 ± 0.03
7,FGSLRLQITVNP,0.557 ± 0.098
8,KKKETEKPRKQK,0.677 ± 0.054
9,SVGGILWLMLEG,0.677 ± 0.044
10,NFHVRFVPDGGR,0.67 ± 0.021
11,GLPCLSPPLAPS,0.683 ± 0.034
12,SGGCVLRLWGFV,0.6853 ± 0.0019
13,PPRPPRPPYPPP,0.609 ± 0.024
14,RPGSMWAQGGVG,0.566 ± 0.0078
15,PSPPPLPPLPPF,0.682 ± 0.029
16,STEIHIKLNAWT,0.687 ± 0.082
17,GGRREGRGFNDG,0.676 ± 0.025
18,PSHPLSLFLLFL,0.58 ± 0.007
19,SLQPRRGQPVTG,0.711 ± 0.0078
20,PALPNNVQCDCE,0.705 ± 0.073
21,KKKKNKKEEHVE,0.715 ± 0.02
22,HYSPLPSLPPLP,0.684 ± 0.077
23,GAKAARTTITSG,0.653 ± 0.026
24,LCLTLPSDSSAP,0.841 ± 0.073
25,GVWVMSGPVTRR,0.716 ± 0.053

row,Sequence,protein stability index
1,SPSPHPQPLIPL,0.681 ± 0.03
2,RCRCPHFLCRFS,0.6165 ± 0.0049
3,VLLYSGVVKFLQ,0.586 ± 0.021
4,LERCKSLDSIVL,0.701 ± 0.071
5,SSRTFRFRPPTI,0.702 ± 0.01
6,MAVYLKYSLLRL,0.515 ± 0.037
7,DCIAFVPRDRRS,0.614 ± 0.012
8,PSPPPPPPPSVR,0.69 ± 0.042
9,VRRRLRLFLMWG,0.588 ± 0.0052
10,VPTCFPLSPSPP,0.714 ± 0.016
11,VGIFSLLRCRGE,0.701 ± 0.035
12,PGPSVRSWHPMD,0.69 ± 0.082
13,SPWMSKNGQSSD,0.622 ± 0.02
14,SPPPLPPPPPSP,0.68 ± 0.036
15,IKREATNASEPN,0.686 ± 0.057
16,PPPRSPPFPSPL,0.689 ± 0.042
17,LLSSPPSPGFSL,0.748 ± 0.12
18,REVLYCTSMLQD,0.707 ± 0.038
19,TWANKRIGRRKE,0.778 ± 0.039
20,RGAPLSPPPPRS,0.714 ± 0.13
21,KSAGLKPNWSTT,0.696 ± 0.065
22,QGTHRGSGGVTE,0.716 ± 0.023
23,DKKEEEKKSTKH,0.70302 ± 0.00026
24,PKNPRSTNGQLS,0.67 ± 0.055
25,GTGDGRHRCRWN,0.6655 ± 0.006

row,Sequence,protein stability index
1,KLKNKRKKIRNR,0.71 ± 0.045
2,AYICLSGLGRCI,0.672 ± 0.03
3,PEGPGAGRGEHN,0.686 ± 0.044
4,WPGICVWAGSPG,0.717 ± 0.06
5,HMLRLIDFQSIV,0.685 ± 0.042
6,PLLVLPGPLLTP,0.668 ± 0.097
7,RVGSRRGVVCLL,0.7526 ± 0.0014
8,RLSVRPGPLRLL,0.68 ± 0.025
9,VLPAWSGTHFVG,0.714 ± 0.017
10,SFGGRMSVPTCC,0.594 ± 0.035
11,PFSIVRRSSFAP,0.659 ± 0.082
12,WRVDKREPPGRL,0.707 ± 0.034
13,AAPDSGTPPLAA,0.6435 ± 0.0043
14,PTPPNSPRPPTP,0.63 ± 0.12
15,EERELGVVWGEV,0.702 ± 0.024
16,SVCPQALNLPPH,0.723 ± 0.043
17,PRGLRIHSRLRG,0.678 ± 0.01
18,WSQDRLFLGFGC,0.875 ± 0.038
19,KKKKNKKIKINE,0.6874 ± 0.0033
20,ASCPLHFTDIRP,0.679 ± 0.018
21,KKRKKNIKQNTK,0.617 ± 0.043
22,DSSRANRCISDR,0.654 ± 0.046
23,HLGTLYSSPLYR,0.66289 ± 0.00054
24,QDTRRRAPYPPS,0.673 ± 0.051
25,GAGRAVRAFCVL,0.651 ± 0.02

row,Sequence,protein stability index
1,PSSPPSSTSPPL,0.633 ± 0.16
2,AACSCGCLTGVG,0.527 ± 0.012
3,MSRPGEGSYIGD,0.652 ± 0.017
4,VVVIGVWGGGVG,0.612 ± 0.019
5,PHPPPPPPALTP,0.704 ± 0.037
6,AVHASTLCSSIG,0.6659 ± 0.0043
7,RGARVGKGDACW,0.607 ± 0.069
8,STQDIRTTKRVA,0.681 ± 0.077
9,PPVLRTPPAPLI,0.681 ± 0.058
10,RIRGGVLYKGVG,0.666 ± 0.016
11,GWSGWFSRVLRG,0.726 ± 0.039
12,EGEVAGRWCGRG,0.69 ± 0.013
13,VAGSGAGREAAY,0.651 ± 0.0067
14,FLSFLFTGFIQL,0.595 ± 0.017
15,RSARGQFRGISC,0.739 ± 0.23
16,REYGVKRIEIKQ,0.682 ± 0.04
17,RPFPLPPRPSPP,0.673 ± 0.13
18,LSVLNTQFGFGS,0.6751 ± 0.0054
19,FACAGPAAFHSL,0.597 ± 0.014
20,YLFVRTGYRCKW,0.681 ± 0.033
21,SFPPVSSLSFSP,0.707 ± 0.048
